Where a chain is given by its changes, count along the chain named. Names and notes keep the numbering of the source.
B1: CtIP ΔC608 (domain or fragment, human, UniProt Q99708 1-608, looked up)
chain: MNISGSSCGSPNSADTSSDFKDLWTKLKECHDREVQGLQVKVTKLKQERILDAQRLEEFFTKNQQLREQQKVLHETIKVLEDRLRAGLCDRCAVTEEHMRKKQQEFENIRQQNLKLITELMNERNTLQEENKKLSEQLQQKIENDQQHQAAELECEEDVIPDSPITAFSFSGVNRLRRKENPHVRYIEQTHTKLEHSVCANEMRKVSKSSTHPQHNPNENEILVADTYDQSQSPMAKAHGTSSYTPDKSSFNLATVVAETLGLGVQEESETQGPMSPLGDELYHCLEGNHKKQPFEESTRNTEDSLRFSDSTSKTPPQEELPTRVSSPVFGATSSIKSGLDLNTSLSPSLLQPGKKKHLKTLPFSNTCISRLEKTRSKSEDSALFTHHSLGSEVNKIIIQSSNKQILINKNISESLGEQNRTEYGKDSNTDKHLEPLKSLGGRTSKRKKTEEESEHEVSCPQASFDKENAFPFPMDNQFSMNGDCVMDKPLDLSDRFSAIQRQEKSQGSETSKNKFRQVTLYEALKTIPKGFSSSRKASDGNCTLPKDSPGEPCSQECIILQPLNKCSPDNKPSLQIKEENAVFKIPLRPRESLETENVLDDIKSAGS
notes: designed to be equivalent to the deletion of Jawad syndrome; also called ΔC608 CtIP; Jawad variant
B2: CtIP-L27E (natural protein, human, UniProt Q99708 1-897, looked up)
chain: MNISGSSCGSPNSADTSSDFKDLWTKEKECHDREVQGLQVKVTKLKQERILDAQRLEEFFTKNQQLREQQKVLHETIKVLEDRLRAGLCDRCAVTEEHMRKKQQEFENIRQQNLKLITELMNERNTLQEENKKLSEQLQQKIENDQQHQAAELECEEDVIPDSPITAFSFSGVNRLRRKENPHVRYIEQTHTKLEHSVCANEMRKVSKSSTHPQHNPNENEILVADTYDQSQSPMAKAHGTSSYTPDKSSFNLATVVAETLGLGVQEESETQGPMSPLGDELYHCLEGNHKKQPFEESTRNTEDSLRFSDSTSKTPPQEELPTRVSSPVFGATSSIKSGLDLNTSLSPSLLQPGKKKHLKTLPFSNTCISRLEKTRSKSEDSALFTHHSLGSEVNKIIIQSSNKQILINKNISESLGEQNRTEYGKDSNTDKHLEPLKSLGGRTSKRKKTEEESEHEVSCPQASFDKENAFPFPMDNQFSMNGDCVMDKPLDLSDRFSAIQRQEKSQGSETSKNKFRQVTLYEALKTIPKGFSSSRKASDGNCTLPKDSPGEPCSQECIILQPLNKCSPDNKPSLQIKEENAVFKIPLRPRESLETENVLDDIKSAGSHEPIKIQTRSDHGGCELASVLQLNPCRTGKIKSLQNNQDVSFENIQWSIDPGADLSQYKMDVTVIDTKDGSQSKLGGETVDMDCTLVSETVLLKMKKQEQKGEKSSNEERKMNDSLEDMFDRTTHEEYESCLADSFSQAADEEEELSTATKKLHTHGDKQDKVKQKAFVEPYFKGDERETSLQNFPHIEVVRKKEERRKLLGHTCKECEIYYADMPAEEREKKLASCSRHRFRYIPPNTPENFWEVGFPSTQTCMERGYIKEDLDPCPRPKRRQPYNAIFSPKGKEQKT
notes: CtIP, human, with the point mutation L27E in the N-terminal tetramerisation interface; Probably made like the wild type (insect cells, StrepII tag)
B3: CtIP-R100W (natural protein, human, UniProt Q99708 1-897, looked up)
chain: B2 chain with E27L, R100W
notes: CtIP, human, with the point mutation R100W that is associated with Seckel-like disease and early onset breast cancer; Expected tetramer mass is printed as 404 kDa, as for the wild type; also called R100W CtIP; source: insect cells (baculovirus, pACEBac1), purified
B4: Wild type CtIP (natural protein, human, UniProt Q99708 1-897, looked up)
chain: B2 chain with E27L
notes: CtIP, human DNA repair factor, wild type, full length; the tag was probably cleaved from the wild type too; also called WT-CtIP; CtIP-WT
B5: CtIP ΔN541 (domain or fragment, human, UniProt Q99708 541-897, looked up)
chain: GNCTLPKDSPGEPCSQECIILQPLNKCSPDNKPSLQIKEENAVFKIPLRPRESLETENVLDDIKSAGSHEPIKIQTRSDHGGCELASVLQLNPCRTGKIKSLQNNQDVSFENIQWSIDPGADLSQYKMDVTVIDTKDGSQSKLGGETVDMDCTLVSETVLLKMKKQEQKGEKSSNEERKMNDSLEDMFDRTTHEEYESCLADSFSQAADEEEELSTATKKLHTHGDKQDKVKQKAFVEPYFKGDERETSLQNFPHIEVVRKKEERRKLLGHTCKECEIYYADMPAEEREKKLASCSRHRFRYIPPNTPENFWEVGFPSTQTCMERGYIKEDLDPCPRPKRRQPYNAIFSPKGKEQKT
notes: CtIP, human, the first 540 amino acids removed (begins at residue 541); a and b are two SEC fractions (dimer and monomer peaks) of the same preparation; No tag cleavage is described in its purification; also called ΔN541a; ΔN541b; source: High-Five insect cells (baculovirus), purified (StrepTactin, MonoQ, Superose 6 SEC)
B6: CtIP ΔN500 (domain or fragment, human, UniProt Q99708 500-897, looked up)
chain: IQRQEKSQGSETSKNKFRQVTLYEALKTIPKGFSSSRKASDGNCTLPKDSPGEPCSQECIILQPLNKCSPDNKPSLQIKEENAVFKIPLRPRESLETENVLDDIKSAGSHEPIKIQTRSDHGGCELASVLQLNPCRTGKIKSLQNNQDVSFENIQWSIDPGADLSQYKMDVTVIDTKDGSQSKLGGETVDMDCTLVSETVLLKMKKQEQKGEKSSNEERKMNDSLEDMFDRTTHEEYESCLADSFSQAADEEEELSTATKKLHTHGDKQDKVKQKAFVEPYFKGDERETSLQNFPHIEVVRKKEERRKLLGHTCKECEIYYADMPAEEREKKLASCSRHRFRYIPPNTPENFWEVGFPSTQTCMERGYIKEDLDPCPRPKRRQPYNAIFSPKGKEQKT
notes: CtIP, human, the first 499 amino acids removed (begins at residue 500); a and b are two SEC fractions (dimer and monomer peaks) of the same preparation; also called ΔN500a; ΔN500b; source: High-Five insect cells (baculovirus), purified (StrepTactin, MonoQ, Superose 6 SEC); not shown: StrepII, C-terminal, kept
B7: CtIP ΔC782 (domain or fragment, human, UniProt Q99708 1-782, looked up)
chain: MNISGSSCGSPNSADTSSDFKDLWTKLKECHDREVQGLQVKVTKLKQERILDAQRLEEFFTKNQQLREQQKVLHETIKVLEDRLRAGLCDRCAVTEEHMRKKQQEFENIRQQNLKLITELMNERNTLQEENKKLSEQLQQKIENDQQHQAAELECEEDVIPDSPITAFSFSGVNRLRRKENPHVRYIEQTHTKLEHSVCANEMRKVSKSSTHPQHNPNENEILVADTYDQSQSPMAKAHGTSSYTPDKSSFNLATVVAETLGLGVQEESETQGPMSPLGDELYHCLEGNHKKQPFEESTRNTEDSLRFSDSTSKTPPQEELPTRVSSPVFGATSSIKSGLDLNTSLSPSLLQPGKKKHLKTLPFSNTCISRLEKTRSKSEDSALFTHHSLGSEVNKIIIQSSNKQILINKNISESLGEQNRTEYGKDSNTDKHLEPLKSLGGRTSKRKKTEEESEHEVSCPQASFDKENAFPFPMDNQFSMNGDCVMDKPLDLSDRFSAIQRQEKSQGSETSKNKFRQVTLYEALKTIPKGFSSSRKASDGNCTLPKDSPGEPCSQECIILQPLNKCSPDNKPSLQIKEENAVFKIPLRPRESLETENVLDDIKSAGSHEPIKIQTRSDHGGCELASVLQLNPCRTGKIKSLQNNQDVSFENIQWSIDPGADLSQYKMDVTVIDTKDGSQSKLGGETVDMDCTLVSETVLLKMKKQEQKGEKSSNEERKMNDSLEDMFDRTTHEEYESCLADSFSQAADEEEELSTATKKLHTHGDKQDKVKQKAFVEPYFK
notes: designed to be equivalent to the deletion of Seckel-2 syndrome; also called ΔC782 CtIP; Seckel-2 variant

Tests used:
[1] = target: the molecule itself; experiment: SEC-MALS; Superose 6 10/300; samples of 0.5–1 mg/ml injected; 20 mM Tris–Cl pH 8.0, 200 mM NaCl, 0.5 mM TCEP
[2] = target: the molecule itself; experiment: native gel or EMSA; native blue PAGE of purified CtIP proteins, compared with the wild type (tetramer) and CtIP-L27E (dimer) reference proteins

Protein | stoichiometry N [1] | binding result [2]
B1 | 4 | –
B2 | – | binds
B3 | 4 | –
B4 | 4 | –
B5 | 2 | –
B6 | 2 | –
B7 | 4 | –

Source: publication PMC11317151, “DNA binding and bridging by human CtIP in the healthy and diseased states” (Nucleic Acids Research, 2023)
